Measured values published in US6624139B1, “Hypersensitive response elicitor-induced stress resistance” (Eden Bioscience Corporation, priority 1998, dated 2003).
Where “and” joins values, the source holds several entries; their conditions need not be identical. Equal values may be shown once.

Experiments:
Aphids (Aphids gossypii) = experiment: Aphid count per leaf on cotton, field trial; type: in vivo
Source text: (§1) Aphids (Aphids gossypii) infect cotton during the entire growth season. The damage of aphid infection ranges from honeydew deposit that contaminates the lint and reduces crop value to defoliation that reduces or destroys crops. To protect plants from aphid infection, cotton is usually sprayed with insecticides, for example Asana XL when the infection pressure is not very high, and Admire when the infestation pressure is high. The effect of a hypersensitive response elicitor on aphids in cotton was studied by a trial involving a randomized complete block design. This involved treatment with Erwinia amylovora hypersensitive response elicitor (i.e. HP-100™) at 20, 60, and 80 ppm and a chemical insecticide, Asana XL, at 8 oz./ac. Each treatment involved foliar application beginning at cotyledon to three true leaves and thereafter at 14 day intervals using a backpack sprayer. Aphid counts and overall growth of the cotton were made immediately prior to spray application at 14, 28, 35, and 42 days after the first treatment (“DAT 1”). Twenty-five randomly selected leaves per plot were collected at the first three sampling dates and the leaves per plot at the final sampling date.

pepper = experiment: Pepper tolerance to SENCOR herbicide damage; type: in vivo
Source text: Pepper seedlings were drenched with hypersensitive response elicitor at 20 ppm seven days before transplanting, sprayed seven days after the transplanting, and then, sprayed every fourteen days. Standard chemicals, Brave, Maneb, Kocide, and Admire, were used for the rest of the treatment. […] The pepper field was applied with the herbicide SENCOR which is not labeled for pepper. This herbicide is known to cause severe foliar damage to pepper in chemically-treated plants but not with hypersensitive response elicitor-treated plants.
The difference between the adverse effect of the herbicide on the hypersensitive response elicitor and non-hypersensitive response elicitor treated plants is dramatic. […] In contrast, 53 out of the 60 chemically-treated pepper plants had severe damage, 40-57% of the leaves were damaged, and 20 plants were dead. The ability of hypersensitive response elicitors to help crops withstand the phytotoxic effects of a herbicide is very important benefit to in agricultural industry.

cotton = experiment: Insecticide stress tolerance of cotton (defoliation, formed cotton balls); type: in vivo
Source text: as §1
2. Hypersensitive response elicitor-treated cotton was more resistant to the damage caused by Pravado (Admire) and Asana. […]

cucumber = experiment: Cucumber field trial under drought (survival, flowering, yield); type: in vivo; set-up: Yield/Replicate: unit not given beside the values; conditions: for Yield summed over the three replicates: control 39.3; for Yield/Replicate / kg/plant: replicates I-III; for % of the Yield Increase: versus control; for kg/plant: cucumber fruit yield
Description: A cucumber field trial was set up to test the effect of Erwinia amylovora hypersensitive response elicitor on disease control, tolerance to drought stress, and yield. Three different rates were tested, there at 15, 30, and 60 μg/ml. In addition to hypersensitive response elicitor treatment, there was an untreated control. Each treatment contained three replicate plots. When the first true leaf emerges, hypersensitive response elicitor was sprayed with a back bag sprayer. The second spray was applied ten days after the first spray. The third application was right after the recovery of cucumber seedlings after the transplanting to the field. Individual treatment was randomly assigned in the field.
When the first true leaf emerged (Day 0), a first application was sprayed. Usually cucumber seedlings are transplanted when seedlings show two true leaves. It has been known that the recovery rate after the transplanting is closely related to the size of the seedlings. Because of the drought, the seedlings were maintained in the nursery for an extra ten days and the second spray was applied on Day 10. Two days after the second spray, the plants were transplanted into fields and covered with plastic sheets. The plants had 4-5 true leaves.

[1] = cited from earlier work

B1: HP-1000: Erwinia amylovora hypersensitive response elicitor protein applied to plants by foliar spray or drench (protein, UniProt Q01099 1-403, looked up)
Harpin HrpN: MSLNTSGLGASTMQISIGGAGGNNGLLGTSRQNAGLGGNSALGLGGGNQNDTVNQLAGLLTGMMMMMSMMGGGGLMGGGLGGGLGNGLGGSGGLGEGLSNALNDMLGGSLNTLGSKGGNNTTSTTNSPLDQALGINSTSQNDDSTSGTDSTSDSSDPMQQLLKMFSEIMQSLFGDGQDGTQGSSSGGKQPTEGEQNAYKKGVTDALSGLMGNGLSQLLGNGGLGGGQGGNAGTGLDGSSLGGKGLQNLSGPVDYQQLGNAVGTGIGMKAGIQALNDIGTHSDSSTRSFVNKGDRAMAKEIGQFMDQYPEVFGKPQYQKGPGQEVKTDDKSWAKALSKPDDDGMTPASMEQFNKAKGMIKSAMAGDTGNGNLQARGAGGSSLGIDAMMAGDAINNMALGKLGAA
Aphids (Aphids gossypii); 20 μg/ml a.i., 1 spray, 14 DAT 1
  Number of aphids per leaf: 0.2 a per leaf
Aphids (Aphids gossypii); 20 μg/ml a.i., 2 sprays, 28 DAT 1
  Number of aphids per leaf: 7.8 b per leaf
Aphids (Aphids gossypii); 20 μg/ml a.i., 3 sprays, 35 DAT 1
  Number of aphids per leaf: 22.9 b per leaf
Aphids (Aphids gossypii); 20 μg/ml a.i., 4 sprays, 42 DAT 1
  Number of aphids per leaf: 322.1 a per leaf
Aphids (Aphids gossypii); 60 μg/ml a.i., 1 spray, 14 DAT 1
  Number of aphids per leaf: 0.1 a per leaf
Aphids (Aphids gossypii); 60 μg/ml a.i., 2 sprays, 28 DAT 1
  Number of aphids per leaf: 4.9 b per leaf
Aphids (Aphids gossypii); 60 μg/ml a.i., 3 sprays, 35 DAT 1
  Number of aphids per leaf: 34.6 b per leaf
Aphids (Aphids gossypii); 60 μg/ml a.i., 4 sprays, 42 DAT 1
  Number of aphids per leaf: 168.3 a per leaf
Aphids (Aphids gossypii); 80 μg/ml a.i., 1 spray, 14 DAT 1
  Number of aphids per leaf: 0.0 a per leaf
Aphids (Aphids gossypii); 80 μg/ml a.i., 2 sprays, 28 DAT 1
  Number of aphids per leaf: 2.7 b per leaf
Aphids (Aphids gossypii); 80 μg/ml a.i., 3 sprays, 35 DAT 1
  Number of aphids per leaf: 25.8 b per leaf
Aphids (Aphids gossypii); 80 μg/ml a.i., 4 sprays, 42 DAT 1
  Number of aphids per leaf: 510.2 a per leaf
pepper; 1 = No damage, 60 plants, SENCOR herbicide, elicitor 20 ppm
  Number of plants with Damage Rating 1: 1
pepper; 2 = 0-20% leaves damaged, 60 plants, SENCOR herbicide
  Number of plants with Damage Rating 2: 38
pepper; 3 = 20-40% leaves damaged, 60 plants, SENCOR herbicide
  Number of plants with Damage Rating 3: 17
pepper; 4 = 40-50% leaves damaged, 60 plants, SENCOR herbicide
  Number of plants with Damage Rating 4: 3
pepper; 6 = More than 75% leaves damaged or entire plant dead, 60 plants, SENCOR herbicide
  Number of plants with Damage Rating 6: 0
pepper; of 60 plants, SENCOR
  Plants with only minor damage by the herbicide (damaged leaves less than 20%): Thirty-nine of the 60
pepper; rating 5 not defined in footnote, 60 plants, SENCOR herbicide
  Number of plants with Damage Rating 5: 1
pepper; sum of rating times number of plants, divided by total plants times 6
  Damage Index %: 41%
cotton; after Pravado (Admire) applied to all plots, elicitor especially at 80 ppm
  Defoliation of cotton after second chemical spraying: no defoliation
cotton; formed cotton balls on ten plants in each of four replicates, after insecticide stress, elicitor at 80 ppm
  No. balls/10 plants/replicate: 35
cucumber; 15 μg/ml
  Yield summed over the three replicates: 103.8
  % of the Yield Increase: 241%
cucumber; 15 μg/ml, listed as HP 15
  Yield/Replicate: 37.5 and 30.0 and 36.3
  kg/plant: 1.25 kg/plant and 1.00 kg/plant and 1.21 kg/plant
cucumber; 30 μg/ml
  Yield summed over the three replicates: 133.2
  % of the Yield Increase: 339%
cucumber; 30 μg/ml, listed as HP 30
  Yield/Replicate: 46.2 and 42.9 and 44.1
  kg/plant: 1.54 kg/plant and 1.43 kg/plant and 1.47 kg/plant
cucumber; 30 ppm
  Final yield relative to control plants: three times greater yield
cucumber; drought
  Start of flowering earlier than untreated control: 14 days
cucumber; drought, untreated 57%
  Cucumber seedlings survived after transplanting: More than 80%
cucumber; drought, virtually no fruit from untreated control
  Cucumber fruits per plant in the first harvest: more than 0.4 kilograms

B2: hypersensitive response elicitor polypeptide or protein derived from Erwinia amylovora: hypersensitive response elicitor protein from Erwinia amylovora, amino acid sequence SEQ. ID. No. 3 (protein, listed as Erwinia amylovora)
chain: MSLNTSGLGASTMQISIGGAGGNNGLLGTSRQNAGLGGNSALGLGGGNQNDTVNQLAGLLTGMMMMMSMMGGGGLMGGGLGGGLGNGLGGSGGLGEGLSNALNDMLGGSLNTLGSKGGNNTTSTTNSPLDQALGINSTSQNDDSTSGTDSTSDSSDPMQQLLKMFSEIMQSLFGDGQDGTQGSSSGGKQPTEGEQNAYKKGVTDALSGLMGNGLSQLLGNGGLGGGQGGNAGTGLDGSSLGGKGLQNLSGPVDYQQLGNAVGTGIGMKAGIQALNDIGTHRHSSTRSFVNKGDRAMAKEIGQFMDQYPEVFGKPQYQKGPGQEVKTDDKSWAKALSKPDDDGMTPASMEQFNKAKGMIKRPMAGDTGNGNLQARGAGGSSLGIDAMMAGDAINNMALGKLGAA
[1]
  Time heat stable at 100° C.: at least 10 minutes
